Values belong to the binder of their own block, whether it stands above or below them.
How the values were obtained:
GST-tagged RIO2 = target: T1, GST-tagged RIO2 (human, UniProt Q9BVS4-1 1-552); assay: pull-down; 50 ng GST-tagged bait with equal amounts of His-tagged or untagged prey; 50 mM Tris-HCl pH 8.0, 10% glycerol, 300 mM NaCl, 5 mM MgCl2, 0.1% Tween20; 1 h at 4°C; glutathione sepharose; western blotting; conditions: both partners purified
T1 construct: also called GST-RIO2; source: E. coli BL21 Codon Plus, purified (glutathione sepharose, desalted); not shown: GST, N-terminal, kept
T1 sequence (Q9BVS4 whole entry): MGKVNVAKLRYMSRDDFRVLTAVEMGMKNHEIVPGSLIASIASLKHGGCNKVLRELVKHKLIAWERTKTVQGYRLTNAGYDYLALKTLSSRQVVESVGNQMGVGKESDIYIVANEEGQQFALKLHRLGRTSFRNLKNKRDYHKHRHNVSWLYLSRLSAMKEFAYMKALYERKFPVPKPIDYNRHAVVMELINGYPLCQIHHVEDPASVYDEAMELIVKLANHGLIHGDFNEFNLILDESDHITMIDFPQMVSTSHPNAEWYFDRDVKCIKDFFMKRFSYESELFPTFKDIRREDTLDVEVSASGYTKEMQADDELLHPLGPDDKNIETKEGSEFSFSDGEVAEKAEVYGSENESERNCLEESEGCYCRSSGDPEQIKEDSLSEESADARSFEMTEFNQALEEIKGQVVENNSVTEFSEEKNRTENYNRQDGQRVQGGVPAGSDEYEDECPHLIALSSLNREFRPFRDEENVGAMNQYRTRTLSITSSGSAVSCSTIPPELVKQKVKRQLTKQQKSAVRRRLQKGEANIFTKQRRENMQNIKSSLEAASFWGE

His-tagged NOB1 = target: T2, His-tagged NOB1 (human, UniProt Q9ULX3 1-412); assay: as above; conditions: both partners purified
T2 construct: also called His-NOB1; source: E. coli BL21 Codon Plus, purified (Ni-NTA, desalted); not shown: His6, N-terminal, kept
T2 sequence (looked up): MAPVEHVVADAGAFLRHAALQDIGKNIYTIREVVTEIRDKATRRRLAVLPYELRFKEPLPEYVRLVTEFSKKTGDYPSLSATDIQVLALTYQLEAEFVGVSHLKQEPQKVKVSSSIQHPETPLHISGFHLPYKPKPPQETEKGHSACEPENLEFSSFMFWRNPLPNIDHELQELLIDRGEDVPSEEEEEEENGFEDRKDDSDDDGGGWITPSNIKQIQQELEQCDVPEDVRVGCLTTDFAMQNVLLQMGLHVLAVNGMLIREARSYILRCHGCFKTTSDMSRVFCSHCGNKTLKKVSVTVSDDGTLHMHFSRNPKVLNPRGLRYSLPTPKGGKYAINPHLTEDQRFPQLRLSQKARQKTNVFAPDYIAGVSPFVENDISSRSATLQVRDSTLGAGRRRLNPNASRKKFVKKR

binding result (GST-tagged RIO2): binds
B1: His-tagged DIM1 (natural protein, human, UniProt Q9UNQ2 1-313, looked up)
chain: MPKVKSGAIGRRRGRQEQRRELKSAGGLMFNTGIGQHILKNPLIINSIIDKAALRPTDVVLEVGPGTGNMTVKLLEKAKKVVACELDPRLVAELHKRVQGTPVASKLQVLVGDVLKTDLPFFDTCVANLPYQISSPFVFKLLLHRPFFRCAILMFQREFALRLVAKPGDKLYCRLSINTQLLARVDHLMKVGKNNFRPPPKVESSVVRIEPKNPPPPINFQEWDGLVRITFVRKNKTLSAAFKSSAVQQLLEKNYRIHCSVHNIIIPEDFSIADKIQQILTSTGFSDKRARSMDIDDFIRLLHGFNAEGIHFS
notes: also called His-DIM1; source: E. coli BL21 Codon Plus, purified (Ni-NTA, desalted); not shown: His6, N-terminal, kept

binding result (His-tagged NOB1): binds
B2: GST-tagged PNO1 (natural protein)
chain: not shown
notes: also called GST-PNO1; source: E. coli BL21 Codon Plus, purified (glutathione sepharose, desalted); not shown: GST, N-terminal, kept

From article PMC6380343, “Interactions and activities of factors involved in the late stages of human 18S rRNA maturation” (RNA Biology, 2019)
